Numbered stars: 1 amine (or outer) side, 2 acyl side, 3 side chain; on linkers, the order of the positions; unused ones are H or OH. Square brackets hold non-standard residues; d marks the D form. Ends that are not written are not given here. γGlu = O=C(O)[C@H](CCC(=O)[*:2])N[*:1]
Biological target: T1, feline calcium-sensing receptor (fCaSR) from Felis catus, full length, expressed in HEK T-Rex/natClytin cells … (Felis catus)
T1 chain: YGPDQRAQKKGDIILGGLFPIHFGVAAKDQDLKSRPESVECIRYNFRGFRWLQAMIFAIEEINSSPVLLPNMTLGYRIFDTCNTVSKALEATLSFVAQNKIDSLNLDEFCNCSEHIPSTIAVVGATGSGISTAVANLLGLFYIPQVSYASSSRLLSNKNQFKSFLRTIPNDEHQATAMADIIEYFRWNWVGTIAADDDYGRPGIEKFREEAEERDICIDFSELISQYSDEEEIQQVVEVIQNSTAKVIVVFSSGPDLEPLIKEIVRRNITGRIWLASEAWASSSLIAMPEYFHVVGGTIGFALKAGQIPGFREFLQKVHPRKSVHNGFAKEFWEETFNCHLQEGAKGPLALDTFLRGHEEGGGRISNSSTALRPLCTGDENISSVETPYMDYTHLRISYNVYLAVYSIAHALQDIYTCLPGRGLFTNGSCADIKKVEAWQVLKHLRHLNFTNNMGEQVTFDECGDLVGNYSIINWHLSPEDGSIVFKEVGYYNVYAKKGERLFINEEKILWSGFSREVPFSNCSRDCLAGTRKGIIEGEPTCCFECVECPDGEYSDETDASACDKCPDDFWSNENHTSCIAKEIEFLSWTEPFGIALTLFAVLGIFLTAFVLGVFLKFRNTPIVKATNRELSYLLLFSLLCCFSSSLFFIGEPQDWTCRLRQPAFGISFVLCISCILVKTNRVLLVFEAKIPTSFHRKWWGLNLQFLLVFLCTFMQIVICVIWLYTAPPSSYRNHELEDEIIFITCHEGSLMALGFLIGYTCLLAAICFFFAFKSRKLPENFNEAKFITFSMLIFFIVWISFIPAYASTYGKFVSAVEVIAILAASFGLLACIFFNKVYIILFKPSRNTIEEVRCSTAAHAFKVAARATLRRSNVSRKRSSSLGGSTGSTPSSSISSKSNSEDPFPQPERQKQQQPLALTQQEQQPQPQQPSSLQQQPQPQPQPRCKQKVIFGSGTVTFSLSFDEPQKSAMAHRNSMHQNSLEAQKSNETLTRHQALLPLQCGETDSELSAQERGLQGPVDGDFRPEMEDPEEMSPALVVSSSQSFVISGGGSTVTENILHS
Assay: cell-based or functional assay

B1: L-Glutathione (γ-Glu-Cys-Gly) (peptide)
peptide: [γGlu]-Cys-Gly
modifications: also: γ-glutamyl peptide bond between Glu side chain and Cys
- Agonist EC50: 8.2 mM

— US20190324031A1 (MARS, published 2019)
